The nature of the data set: label from the status in PepcDB records.

The values below come from a protein production outcome set (Wang et al. 2014).

As for “MLARALFFVVLSTATFLFLWQFPSTGAQSIPHLDKLVHFGIFFVLALTFHRAFALSAKLSLLILVCYGFLIEIAQSYAPGRSADVYDWLADASGVVAYFILHHLLSKKSR”, the protein production entry is listed as “failed”.

With “MLASLEARYPGLAFAWPRPGVLEITFRGEKLXAMPPALHRGLARVWRDLEAVEGVRAVLLRGEGGVFSAGGSFGLIEEMRASHEALLRVFWEARDLVLGPLXFPRPVVAAVEKVAVGAGLALALAADIAVVGKGTRLLDGHLRLGVAAGDHAVLLWPLLVGMAKAKYHLLLXEPLTGEEAERLGLVALAVEDEKVYEKALEVAERLAQGPKEALHHTKHALXHWYRSFLPHFELSLALEFLGFSGKELEEGLKALKEKRPPEFP”, the protein production entry is recorded as “not failed”.

For “MLAVFTKSVAGVKLFGMMYPVLERSENLPTDDSIDAIKEIAKALQSVLFKLHINGYSSLLHPLGVNNVDFILKFYVVKDGENDSLRVINVYHKLCGEAEDSWLEIVNNFRGEFSFISMMQRIEASLLLINAVKCYVVSDTLGNLFFRNDYNFGTGGSVCYVHIFGGHYLASGKGLRKLQLPLMETKMEPLIPDDIV”, the protein production result is on record as “failed”.

As to “MLAVIEKQGNEYVVQFERYFSYSIEEVWSVLTENSKLKKWMSNLQIESLKTGGIIKFDMMDGSFINIDILECQVNAVLEFTWDKDCVRFEIHKEENDTLLLLKEYIHELTDHTPKDIAGWHICLDLFSSVLEGKEKEFSKDEWKQWFEIYKDKVLELRA”, the protein production entry is listed as “failed”.

For the sequence “MLAVKIFDRLPLALVITNASHSVLYANDAFKLMVCLQPDDILAFNPEQFFSPSEPHEIASLFNHLSEGKMWQGELVGLRNNGETFYLDLTVTVFRESHSADLGFAWLFSDVSERKKAAQLEHHHHHH”, the protein production entry is “not failed”.

Consider “MLCCLRIENFALIDHLELDLQAGLMVLTGETGAGKSIILDALDLALGGKATARLIRAKNDQGDATGERAFIEATFSLTPSIKQWLQSQDIDLLEDETVICSRELSLTRTGLRSRSRVNGIILNQGLMAELRAQLLEITAQGQTVELLIPERQRILLDSYGGSQVQQQRQLVNLAYQTYLKAKQLLESRRTSEQERLQRLDLLQYQLQELRDAHLEDSEELETLQQEGDRLSHVVELQQLSYQAHQILYQNDDPETPAVADLLGEAENLLKEMVDYDTQLNGILD”, for which the protein production entry is on record as “failed”.

Consider “MLCLHTSVHCYENPSVIFSLIYIIICKYMYYNILSATTIFILYSQIVGQNGDDIIKYYHSFLNYVIIFYMSRH”, for which the protein production entry is “failed”.

For “MLDDLDLFVAIVDAGSLSAAAKRMAMPAATLTRRLQALEAELGCKLLNRSARRLVPTNEGWQYYEQCKPLLAALRQAADSLDATLNRVEGVVRAMAPVSMANSLLLPVWQRLLQRHPAVRLELVLSNGTEDVWAMGGDLAIRVGPQPDSQLNQRKLGQVSAVLAAAPSYLEARGRPQAFEQLAGHDLLLTTPLQNWKLHRVDGDEERSLPDGARLLVNDMLLGVRMAEAGCGVVLCPLSQCHRELADGRLERILQDWWIPPRPVYAVWPQRRAMPARVRALLDILLEFAAEEPLLRS”, the protein production result is on record as “failed”.

Turning to “MLDLNEFLTRKMKIDVLLKEHGWDVGDRSKVVLEVDTIQSDIKKQDYRQVNETRRNDAESKYADYLLLDSTGKPLAIIEAKRTTKDPILGQKQAEEYADDIKTQTGEEVFIFLSNGYQIWLWDRERYGPRQIKGFYSPEDLERLLYQRKYSERETEIDIDGNIVDRAKSVEVATRVVEHIHKGHRKALIVMATGTGKTRVAMAIIDQLMRESRVQRVLFLTDRKALRKQAYEKGYLRYFPEETKEIIHSGNYNSNCRLYVSTIQTFQEIYNQKDRNGKYRISPGAFDLIFSDEAHRSIYSKWKGIFTYLDAIQIGLTATPADMVDRDTFRFFECHDDIPTALYSYEDAVRDGVLCDFRKNISGARTYFQIEGLKPENLTEGEREELIKKGIDPDDINFEGTELEKKVAVKGTSEAIVREFMENCLTDQAGTLPAKTIFFAISKLHAKRLWEAFEKLYPEHKGKLARIIVSEDSRAQQLIKDFEEKPFPRIAISVDMMDTGIDVPEVCNLVFAKPVFSKIKFWQMLGRGTRADGACEHREWLPDGKKEYFKVFDFWNNFEYWNMNPEGAKNESAEAITNRIFLTRLKQLGELMQRRDPASEKAAEKVKAKIISDIESLPRDSVNVREHLQDMEKALSPKLWDNIAIDPVEFLQKKIMPLMKFKPDVNLKEATFTLRCEKLAYALLENDKAEIDRLKTSIAEMVDRLPRTLDSVRAREALMDNVLSRSFWETVSFEDVQLLLSDLAPLMPYMAKEPRETIVIDMSDIIAERKKWEISDGNDPSYVEAYRREVEARIKALAETHPAVRKIKNNEPLTDYDLEQLEETLLNADLTPDNPKLSSHASLSDLYPSRQASLVDFIRQVLGLYSSPSPDALIKDAFQTYIIGNNKHYSSDQLNFILTLQTVFLKKKHIEYSTLWLPPFTNFGTTAPFPMFTQEELNSFIDICKGVEKDIFM”, the protein production entry was “not failed”.

Regarding “MLDLVNQLELDSQMKQFKLVSQMTRQDVIILDEPGYLPFSQKRGALLFHLMSQLHENTSVIITTNLEFSEWGTLFTEAKMTNALLDRLIHHCHMLETGNESYRFKHRNLEHHHHHH”, the protein production entry is given as “failed”.

With “MLDNRPIGVFDSGIGGLTIVKNLMSILPNEDIIYFGDIARIPYGTKSRATIQKFAAQTAKFLIDQEVKAIIIACNTISAIAKDIVQEIAKAIPVIDVITAGVSLVDNLNTVGVIATPATINSNAYALQIHKKNPNIEVYSNPCGLFVSMIEEGFVSGHIVELVAKEYLSYFHDKNIQALILGCTHYPIIKESIAKILDVKLIDPSLQASKMLYSLLFENKLLNTTKSNPEYRFYVTDIPLKFRSVGEMFLQTEMQHLEIVSLDSY”, the protein production entry is “not failed”.

On to “MLDPATRTPPSLPDFIIGGAMKSATSSLHHLLSNHEQVYLPDGETHFFCMDDPVQHSGFFFPARAPSQRAPDYDRHGETNLDWYRQLFEPAHPDQCVGDYSSTYLPAPDAPLRIKRLLPDVKLLFMLRNPVDRTYSHYWHRVKTGRAVHGFEYELQHGPSTLLLRSFYKPQLERYFDFFPEDQVKVILFERFVDHTQAVVDEVCSFLGLETAVDVAGVDAHQNRSPVPRWPGLQLLLNYCTTGIETRSEGQLPYPAQPQSSYALQGLVHHLRQLNLTPRRPPPMNDSVRACLEQIFARKNQDLGTLLGVDLTSYWPFLRKQHDEPAETAA”, for which the protein production result was “failed”.

Consider “MLDQKPKVSVIIPTYNRAHLIPRAIKSVLNQTYLDIEIIIVDDSSTDNTEEIVKDFKDRRLKYIRHNINKGASAARNTGIRESRGKYIAFQDSDDEWFSNKLEKQIEAFADAPPEVGIVYSGFYRIEANRKLYLPSDQLSLKEGNIHNELLKGNFVGTPTVLMKKECFRNQRYFNESLPALEDWELWIELSKYYTFRYIKKPLLCSYSTPNSINLNENNMLKAHEIILLTHLDDFSKNKKNLSEHYYDIGTGLCSIGNFNNGKNYLIKSLKAYCLNFKTISVLFILLFGHNIYYKFRDLHRKIGHRT”, for which the protein production entry was “failed”.

As for “MLDRVIYSLIQTENKSVVNELFFRIAEGEDSFAELARKYSQGAEADRGGIIGPVELGSITPNFAQLLYTSQVGVVQPPVAFGNTWVIVRVEKLIPAQLEHHHHHH”, the protein production entry was “failed”.

“MLEAEVVALKDLIEVAGAVVSTLDLDTVLRHILTSAMRFAETPAGSIALYDGYRNDLTLHAHEGLTPEFVKTERWSVQPGGLTEQVLTRGEILFVNDTADTSFFHNPTALNEGIRSLICVPLMMQNRIVGILYLDDFVPRDFDKERMKLLSVLASFAAMAIDNAQLHARTRLMAITDSLTGLYNHRYFQQIFSRELNRAKRYEKPLAIIMLDVDDFKRFNDTYGHPHGDKVLAAMGDFLGEALRSSDFAFRYGGEEFIVLLPETEFDSALQVAERLRELVERRSLDVLKGLAPQGVTVSVGVASFPRDGESRGDMLKRVDDLLYRAKEFGKNRVYSRREDEP”: the protein production result is listed as “failed”.

On to “MLEDHHLYKAAIEHSPIGIGLCAPKGRFLDVNRALCALTGHEAQALRARDLFDLCHPDYAARTRERVEALLAGEQDALSLETRFVRPDGSTVWVQADLALARAEAGDGQDGHLIVQVQDVTARRLALESLQASEQRLAYVLDGAGLGTFDWSMRVRHVSFNRRTAEMLGYAHDELSTDPQDWFAMVHPQDAVLSVRRIYRHLRGDADSFEVEQRLRNQEGQWVWMSARGRVTQRDALGIAVRVSGTLQDVTRRRAMLDQAHHLALHDPLTDLPNARLLRDRLFVAIQAARRAGSLVAVVFVDLDRFKPVNDEYGHGVGDLVLKATAMRLRSGLRASDTVARLGGDEFVAVLTHCQTRDDVEQTVERLIEQLQAPFRVEGHVLSMGVSAGVALYPSDGRDAQTLIRCADAAMYEVKRAGGNDFGFHASLNYERLMSMRQRGPDPDGGADGR”, for which the protein production entry is recorded as “failed”.

As for “MLEGAKFNVLAVGNHHNNDNNYYAFTQEFYQKLNEGSNMSMESMQTSNAGGSVSMSVDNSSVGSSDALIGHPGLKPVRHYSLSVGQSVFRPGRVTHALNDDALAQALMDTRYPTEGLTNYDEWTIDLRKLNMGPAFAQGAFGKLYKGTYNGEDVAIKILERPENSPEKAQFMEQQFQQEVSMLANLKHPNIVRFIGACRKPMVWCIVTEYAKGGSVRQFLTRRQNRAVPLKLAVKQALDVARGMAYVHGRNFIHRDLKSDNLLISADKSIKIADFGVARIEVQTEGMTPETGTYRWMAPEMIQHRAYNQKVDVYSFGIVLWELITGLLPFQNMTAVQAAFAVVNRGVRPTVPNDCLPVLSDIMTRCWDANPEVRPCFVEVVKLLEAAETEIMTTARKARFRCCLSQPMTID”, the protein production entry was “failed”.

For “MLEHAAGQPWIYPVLLVFFFIDGFATILPSETAIVGLSALSLHSGEPNLWILGGTALVGAMAGDNMAYMLGRKIGLTRWKWMRRPKVQKMFAWAQYELDKRGAVLIFTARYIPWGRVAVNYVAGQTGFRHRTFFWLDAFACITWVGYSIGIGLLAGQWVHHNPLLGVGIAVAFAVVLGIVVDHALRWWHKYLEKKDVAREAAASSEVKVAEPADLSQKAVAGADLSKPAG”, the protein production result is reported as “failed”.

As to “MLEILMSLTAAICWAFNGIAYRKGVKDVSAFTANFHRTLFATVYFLPLALRDFPGVVIDLQTALVLVISAMLSFYIGDLSYFASLKRSPVSIALPASSTYPVYVVLLSTVIYGAELSLNALISAILVFVAVYIIYGSGEKGETSGLFYALLAAFSWALAILTLDFLTDRLPVSIVAFVRLLLCLILLSFTAKKDELSTEIRLFFRSVRGIFLLLGIMLFITAIKVSSSWNVVQPSSTSPVFAAIFGAIFLKERISFRLVAGIFVIILAILLLLLPPLQ”, the protein production result is given as “failed”.

Consider “MLEIVAAIFIVLLGSGICSCAEAALFSVPLVKVRQLSQSNNPSAIALQAIRHRMNRPIGTIVVLNNIFNIVGSITIGALATKHLQDAWMGVFSGILTLLIIVFGEIIPKTLGERYATNIALLIAIPVRFLTLIFTPLVWLIEQITNPFTHGKRVPSTNEAEIKFLATLGYKEGVIEGDEEQMIQRVFQLNDLMAVDLMTPRVIITYLLGELTLAECQQDIIQSQHTRILIVDEYIDEVLGIALKQDLLTALIQGEGYKTIAELARPAQFVPEGMRADKLLKQFQEKREHLMVVIDEYGGVAGVITLEDVVEVLTGEIVDETDKNIDLQEIARKKRQALLKQRGVAP”, for which the protein production result is listed as “failed”.
